Laboratory results reported in US20160324751A1, “METHOD OF PREPARING RECOMBINANT HUMAN TYROSINASE” (Conopco, Inc., d/b/a UNILEVER, priority 2012, published 2016).

How the values were obtained:
[1] = molecular target: T1, human tyrosinase prepared using truncated gene (TMRL) (Homo sapiens, UniProt P14679); test: In vitro tyrosine to melanin assay; type: biochemical; conditions: TMRL (60 μg) + 50 mM Arbutin
T1 construct: The truncated version is defined as a gene whose corresponding protein extends from the N-terminus to the amino acid 472 or lower; made in house; host or cells: HIGHFIVE (BTI-TN-5B1-4) insect cells, baculovirus (PFASTBAC)
T1 sequence (P14679 19-472 limits assumed): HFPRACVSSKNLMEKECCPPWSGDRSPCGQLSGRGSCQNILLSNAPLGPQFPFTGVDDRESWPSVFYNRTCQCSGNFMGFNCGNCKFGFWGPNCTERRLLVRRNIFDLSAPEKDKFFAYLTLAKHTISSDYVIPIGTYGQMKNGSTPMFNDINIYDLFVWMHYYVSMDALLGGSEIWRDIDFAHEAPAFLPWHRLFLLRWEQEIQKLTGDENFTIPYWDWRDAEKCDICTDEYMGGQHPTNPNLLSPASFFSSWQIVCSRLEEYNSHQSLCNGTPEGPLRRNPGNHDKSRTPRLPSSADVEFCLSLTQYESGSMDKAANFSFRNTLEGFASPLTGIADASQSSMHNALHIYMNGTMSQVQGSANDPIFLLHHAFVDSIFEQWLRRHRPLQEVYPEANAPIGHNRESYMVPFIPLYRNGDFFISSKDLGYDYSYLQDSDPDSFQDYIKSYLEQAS
Text: At the completion of the reaction, samples were photographed and data analyzed further in the same manner described under the DOPA+MBTH section.

[2] = tested on: insect cells expressing FL rHuTyrase; test: Visual examination of cell pellet prior to cell lysis; type: cell-based; conditions: prior to cell lysis by sonication; control uninfected cells pale
Text: FIG. 2: Visual examination (prior to cell lysis by sonication) of the samples of cell pellet obtained in the case of insect cells expressing Full (FL) rHuTyrase (Example 1) as compared to the control uninfected cells (Example A).

[3] = tested on: human tyrosinase; test: DOPA+MBTH solution phase tyrosinase enzymatic assay; type: biochemical; conditions: gray scale intensity difference to Example D, relative to HML (Example B); 0 = transparent, close to 1 = activity comparable to HML
Procedure: Standard western blot procedure was used to examine the extent of tyrosinase protein expression as well as determine optimal time point to harvest the cells. For scale up work, it was decided to use the insect cell line known as BTI-TN-5B1-4, sold under the tradename HIGHFIVE™ further. 100 ml scale growth of “infected” HIGHFIVE™ cells were carried out and both the spent media as well as the cell pellets were collected. The latter was lyzed by regular sonication method and the activity of the tyrosinase enzyme in various samples were tested using the typical DOPA oxidation and DOPA+MBTH coupling assays.
DOPA oxidation activity was examined by a slightly modified version of the procedure earlier reported by Harris & Winder [Eur. J. Biochem. (1991) 198: 317-326], excluding Perchloric acid and Dimethylformamide but capturing a picture on reaction progress. […]
Example E: Growth media supernatant in which above cells were grown Reaction samples were photographed and converted into gray scale intensity (GSI) by computer software digitization. Numerical differences (di) were calculated between GSI of any sample and that of reference control background sample (Example D). dmax was the maximal difference, that between HML (positive reference control, Example B) and the reference control background sample (Example D).

[4] = tested on: human tyrosinase; test: DOPA (2 mM) oxidation assay in absence of MBTH, OD450 nm; type: biochemical; conditions: 15 μg protein equivalent, OD450 nm after 90 min converted into ratio
Procedure: DOPA oxidation activity was examined by a slightly modified version of the procedure earlier reported by Harris & Winder [Eur. J. Biochem. (1991) 198: 317-326], excluding Perchloric acid and Dimethylformamide but capturing a picture on reaction progress. Separately, in vitro melanin formation assay was carried out for 7 hrs. at 37° C., using a substrate mix (of 0.5 mM L-Tyrosine+15 μM L-DOPA) in 50 mM phosphate buffer (pH 6.8) and using indicated amounts of protein. This assay covers both tyrosine hydroxylation and DOPA oxidation activities together in the same run. Human melanocytic lysate served as the reference positive control and absence of any protein served as the no enzyme negative control (uncatalyzed background reaction) for these reactions. Assay volumes of 0.1 ml were adequate, indicating scalability for enhanced high throughput screening purposes.
When the activity of 15 μg protein equivalent recombinant human tyrosinase samples were tested in DOPA (2 mM) assay (in absence of MBTH), OD450 nm values reached after 90 min. (indication of extent of oxidation) were converted into a ratio form and are tabulated below: […]

## OC[C@H]1O[C@@H](Oc2ccc(O)cc2)[C@H](O)[C@@H](O)[C@@H]1O [Arbutin]
[1]
  Scale ratio di/dmax (tyrosinase activity of TMRL with inhibitor): 0.00

B1: Example 1: Full length recombinant human tyrosinase, synthetic gene codon optimized for baculovirus expression in insect cells (protein, UniProt P14679 1-529, looked up)
chain: MLLAVLYCLLWSFQTSAGHFPRACVSSKNLMEKECCPPWSGDRSPCGQLSGRGSCQNILLSNAPLGPQFPFTGVDDRESWPSVFYNRTCQCSGNFMGFNCGNCKFGFWGPNCTERRLLVRRNIFDLSAPEKDKFFAYLTLAKHTISSDYVIPIGTYGQMKNGSTPMFNDINIYDLFVWMHYYVSMDALLGGSEIWRDIDFAHEAPAFLPWHRLFLLRWEQEIQKLTGDENFTIPYWDWRDAEKCDICTDEYMGGQHPTNPNLLSPASFFSSWQIVCSRLEEYNSHQSLCNGTPEGPLRRNPGNHDKSRTPRLPSSADVEFCLSLTQYESGSMDKAANFSFRNTLEGFASPLTGIADASQSSMHNALHIYMNGTMSQVQGSANDPIFLLHHAFVDSIFEQWLRRHRPLQEVYPEANAPIGHNRESYMVPFIPLYRNGDFFISSKDLGYDYSYLQDSDPDSFQDYIKSYLEQASRIWSWLLGAAMVGAVLTALLAGLVSLLCRHKRKQLPEEKQPLLMEKEDYHSLYQSHL
modifications: full-length recombinant, baculovirus-expressed
notes: Full length recombinant human tyrosinase, synthetic gene codon optimized for baculovirus expression in insect cells
[2]
  Colour of cell pellet (melanin like pigment within the cells): black

B2: Example 3: Sonication lysate supernatant of HIGHFIVE cells expressing FL tyrosinase (protein, UniProt P14679 1-529, looked up)
chain: B1 chain
modifications: full-length insect cell lysate
[3]
  Scale ratio di/dmax (DOPA + MBTH Reaction): 0.85

B3: Example 6: FL lysate supernatant, 15 μg protein equivalent (protein, UniProt P14679 1-529, looked up)
chain: B1 chain
modifications: full-length insect cell lysate
notes: FL lysate supernatant, 15 μg protein equivalent
[4]
  Scale ratio di/dmax (Extent of DOPA oxidation): 0.90

B4: Example G: Commercially sourced E. coli (bacteria) expressed recombinant human tyrosinase (protein, UniProt P14679 19-529, looked up)
Tyrosinase: HFPRACVSSKNLMEKECCPPWSGDRSPCGQLSGRGSCQNILLSNAPLGPQFPFTGVDDRESWPSVFYNRTCQCSGNFMGFNCGNCKFGFWGPNCTERRLLVRRNIFDLSAPEKDKFFAYLTLAKHTISSDYVIPIGTYGQMKNGSTPMFNDINIYDLFVWMHYYVSMDALLGGSEIWRDIDFAHEAPAFLPWHRLFLLRWEQEIQKLTGDENFTIPYWDWRDAEKCDICTDEYMGGQHPTNPNLLSPASFFSSWQIVCSRLEEYNSHQSLCNGTPEGPLRRNPGNHDKSRTPRLPSSADVEFCLSLTQYESGSMDKAANFSFRNTLEGFASPLTGIADASQSSMHNALHIYMNGTMSQVQGSANDPIFLLHHAFVDSIFEQWLRRHRPLQEVYPEANAPIGHNRESYMVPFIPLYRNGDFFISSKDLGYDYSYLQDSDPDSFQDYIKSYLEQASRIWSWLLGAAMVGAVLTALLAGLVSLLCRHKRKQLPEEKQPLLMEKEDYHSLYQSHL
modifications: E. coli expressed
notes: Commercially sourced E. coli (bacteria) expressed recombinant human tyrosinase
[4]
  Scale ratio di/dmax (Extent of DOPA oxidation): 0.04
